# Where no end group is shown, it is not given here.
# What was measured:
# [1] = target: T1, Aβ 29-42 (Homo sapiens, UniProt P05067); assay type: biochemical; details: for % of fusion after 15 minutes: 1/1 peptide ratio, room temperature, average of plateau (10-15 minutes) of three experiments, Aβ alone = 100%
# [2] = system: SH-SY5Y cells; assay: Cell toxicity assay (MTS) in presence of both the Aβ 1-42 and ApoE 270-287 peptides; assay type: cell-based, human; details: 2 μM ApoE 270-287 + 100 μM Aβ 1-42 (ratio 1/50), 24 h, FIG. 9
# [3] = system: SH-SY5Y cells; assay: Cell toxicity assay (MTS) of single peptides on human neuroblastoma cell line; assay type: cell-based; details: 24 h, FIG. 7 / FIG. 8
# [4] = system: Aβ 29-42; assay type: biochemical; details: without Aβ 29-42; data not shown
# Description: (§1) In this leakage assay, performed according to the procedure described in Ellens et al. (Ellens, H., Bentz, J., and Szoka, F. C. (1985) Biochemistry 24, 3099-3106), a substance encapsulated in the liposomes is followed by fluorescence measurement. HPTS ([…]) and his quencher DPX (p-xylylenebis[pyridinium]bromide) were both encapsulated in the aqueous phase of the same liposomes. Liposomes were eluted on a Sephadex G75 column to remove the excess of HPTS and DPX.
# (§2) Fluorescence was measured at room temperature using excitation and emission wavelengths of 450 nm and 512 nm, respectively. Leakage induced by the Aβ peptide was followed by measuring the dequenching of HPTS released into the medium. The percentage of release induced by the peptide was defined as Ft/Ftot×100, where Ft is the fluorescence signal measured at time t and Ftot is the signal obtained after lysing the vesicles with 0.5% Triton X100.
# [5] = target: T1, Aβ 29-42; assay type: biochemical; set-up: made in house; host or cells: chemical peptide synthesis (no expression host); details: for HPTS fluorescence signal when added to Aβ 29-42 (inhibition of membrane destabilization): independently of the mutant/Aβ 29-42 molar ratio, Aβ peptide/lipid molar ratio 0.4, FIGS. 4a and b
# Description: as §1, §2
# [6] = target: T2, β-Amyloid peptidic fragment 29-42 (Aβ 29-42) (C-terminal and N-terminal blocked (N-amidated and C-acetylated) (so in the source)); assay: cell-based or functional assay
# [7] = target: T2, β-Amyloid peptidic fragment 29-42 (Aβ …); assay: cell-based or functional assay; remark: listed apart in the source
molecule,measurement,setting,value
Ac-EDMQRQWAGLVEKVQAAV-NH2 [ApoE WT],% of fusion after 15 minutes,[1],89%
same,"fluorescence signal (lipid fusion), Aβ 29-42 alone taken as 100% fusion reference","[1]; FIG. 3, added to Aβ 29-42 at molar ratio of 1, Aβ peptide/lipid ratio 0,4 (mol/mol)",about 91%
same,cell viability in presence of Aβ 1-42 and the complementary peptide,[2],80%
same,cell toxicity (viability against increasing peptide concentrations),[3],induces cell toxicity only at 100 μM
"EDMQRQMAGLMEKMQAAV (also: N- and C-terminal blocking) [ApoE mutant 413, peptide derived from ApoE WT]",destabilization effects of the peptide alone on the membranes,[4],no destabilization effects on the membranes
same,HPTS fluorescence signal when added to Aβ 29-42 (inhibition of membrane destabilization),[5],much weaker
"GAIIGLMVGGVVIA (listed as Homo sapiens) [Aβ 29-42, C-terminal part of the β-Amyloid protein, tilted fusion peptide]",% of fusion after 15 minutes,[1],100%
same,% of leakage after 15 minutes,"[5]; 1/1 peptide ratio, room temperature, average of plateau (10-15 minutes) of three experiments",28%
"EDMQRQLAGVVEKVQAAV (also: N- and C-terminal blocking) [ApoE mutant 11, peptide derived from ApoE WT]",destabilization effects of the peptide alone on the membranes,[4],no destabilization effects on the membranes
same,HPTS fluorescence signal when added to Aβ 29-42 (inhibition of membrane destabilization),[5],much weaker
Aβ 1-40: β-Amyloid 1-40 peptide,cell toxicity (viability against increasing peptide concentrations),[3],does not induce any
"EDMQRQWAGLVEKVQAAV (not fully specified (N-terminus, C-terminus)) [wild type Apolipoprotein E3 peptide 270-287 (ApoE WT)]","% of fusion after 15 minutes (R18 lipid fusion of SUV induced by Aβ 29-42, 1/1 peptide ratio)",[6],89%
same,"R18 fluorescence signal of lipid fusion against Aβ 29-42 alone as 100% (FIG. 3, molar ratio of 1)",[7],~91%
Ac-EDMQRQLAGVVEKVQAAV-NH2 [ApoE mutant 11],"% of fusion after 15 minutes (R18 lipid fusion of SUV induced by Aβ 29-42, 1/1 peptide ratio)",[6],17%
same,"% of leakage after 15 minutes (HPTS/DPX liposome leakage induced by Aβ 29-42, 1/1 peptide ratio)",[6],0%
same,"R18 fluorescence signal of lipid fusion against Aβ 29-42 alone as 100% (FIG. 3, molar ratio of 1)",[7],23%
Ac-EDMQRQMAGLMEKMQAAV-NH2 [ApoE mutant 413],"% of fusion after 15 minutes (R18 lipid fusion of SUV induced by Aβ 29-42, 1/1 peptide ratio)",[6],21%
same,"% of leakage after 15 minutes (HPTS/DPX liposome leakage induced by Aβ 29-42, 1/1 peptide ratio)",[6],4%
same,"R18 fluorescence signal of lipid fusion against Aβ 29-42 alone as 100% (FIG. 3, molar ratio of 1)",[7],25%

# Reference: patent US20080193947A1, “Complementary Peptides For Beta-Amyloid 29-42 Peptide” (priority 2004, published 2008)
